Reference: patent US20210032299A1 (Eli Lilly, published 2021)
Starred links: 1 amine or outer side, 2 acyl side, 3 side chain; linkers in the order of their positions; H or OH if unused. Non-standard residues stand in square brackets, D forms with d. Groups on a side chain read outwards from the residue. No end group written: not given here. *: point of attachment. C20 diacid = O=C(O)CCCCCCCCCCCCCCCCCCC(=O)*; αMePhe(2-F) = C[C@](N)(Cc1ccccc1F)C(=O)O; γGlu = O=C(O)[C@H](CCC(=O)[*:2])N[*:1]; αMeL = CC(C)C[C@](C)(N)C(=O)O; AEEA = NCCOCCOCC(=O)O; Aib = CC(C)(N)C(=O)O

B1: Example 35 (peptide)
peptide: Y[Aib]EGT[αMeL]ISDYSIALDKK([AEEA-AEEA-γGlu-C20 diacid])HQ[Aib]EFVNYLLATGPSSGAPPPS-NH2
modifications: N-terminus assumed
SMILES: CC[C@H](C)[C@H](NC(=O)[C@H](CO)NC(=O)[C@H](Cc1ccc(O)cc1)NC(=O)[C@H](CC(=O)O)NC(=O)[C@H](CO)NC(=O)[C@@H](NC(=O)[C@](C)(CC(C)C)NC(=O)[C@@H](NC(=O)CNC(=O)[C@H](CCC(=O)O)NC(=O)C(C)(C)NC(=O)[C@@H](N)Cc1ccc(O)cc1)[C@@H](C)O)[C@@H](C)CC)C(=O)N[C@@H](C)C(=O)N[C@@H](CC(C)C)C(=O)N[C@@H](CC(=O)O)C(=O)N[C@@H](CCCCN)C(=O)N[C@@H](CCCCNC(=O)COCCOCCNC(=O)COCCOCCNC(=O)CC[C@H](NC(=O)CCCCCCCCCCCCCCCCCCC(=O)O)C(=O)O)C(=O)N[C@@H](Cc1c[nH]cn1)C(=O)N[C@@H](CCC(N)=O)C(=O)NC(C)(C)C(=O)N[C@@H](CCC(=O)O)C(=O)N[C@@H](Cc1ccccc1)C(=O)N[C@H](C(=O)N[C@@H](CC(N)=O)C(=O)N[C@@H](Cc1ccc(O)cc1)C(=O)N[C@@H](CC(C)C)C(=O)N[C@@H](CC(C)C)C(=O)N[C@@H](C)C(=O)N[C@H](C(=O)NCC(=O)N1CCC[C@H]1C(=O)N[C@@H](CO)C(=O)N[C@@H](CO)C(=O)NCC(=O)N[C@@H](C)C(=O)N1CCC[C@H]1C(=O)N1CCC[C@H]1C(=O)N1CCC[C@H]1C(=O)N[C@@H](CO)C(N)=O)[C@@H](C)O)C(C)C
B2: Example 36 (peptide)
peptide: Y[Aib]EGT[αMePhe(2-F)]ISDYSIALDKK([AEEA-AEEA-γGlu-C20 diacid])HQ[Aib]DFVEYLLETGPSSGAPPPS-NH2
modifications: N-terminus assumed
SMILES: CC[C@H](C)[C@H](NC(=O)[C@H](CO)NC(=O)[C@H](Cc1ccc(O)cc1)NC(=O)[C@H](CC(=O)O)NC(=O)[C@H](CO)NC(=O)[C@@H](NC(=O)[C@](C)(Cc1ccccc1F)NC(=O)[C@@H](NC(=O)CNC(=O)[C@H](CCC(=O)O)NC(=O)C(C)(C)NC(=O)[C@@H](N)Cc1ccc(O)cc1)[C@@H](C)O)[C@@H](C)CC)C(=O)N[C@@H](C)C(=O)N[C@@H](CC(C)C)C(=O)N[C@@H](CC(=O)O)C(=O)N[C@@H](CCCCN)C(=O)N[C@@H](CCCCNC(=O)COCCOCCNC(=O)COCCOCCNC(=O)CC[C@H](NC(=O)CCCCCCCCCCCCCCCCCCC(=O)O)C(=O)O)C(=O)N[C@@H](Cc1c[nH]cn1)C(=O)N[C@@H](CCC(N)=O)C(=O)NC(C)(C)C(=O)N[C@@H](CC(=O)O)C(=O)N[C@@H](Cc1ccccc1)C(=O)N[C@H](C(=O)N[C@@H](CCC(=O)O)C(=O)N[C@@H](Cc1ccc(O)cc1)C(=O)N[C@@H](CC(C)C)C(=O)N[C@@H](CC(C)C)C(=O)N[C@@H](CCC(=O)O)C(=O)N[C@H](C(=O)NCC(=O)N1CCC[C@H]1C(=O)N[C@@H](CO)C(=O)N[C@@H](CO)C(=O)NCC(=O)N[C@@H](C)C(=O)N1CCC[C@H]1C(=O)N1CCC[C@H]1C(=O)N1CCC[C@H]1C(=O)N[C@@H](CO)C(N)=O)[C@@H](C)O)C(C)C
B3: Example 33 (peptide)
peptide: Ac-[dY]AEGT[αMePhe(2-F)]ISDYSIALDKK([AEEA-AEEA-γGlu-C20 diacid])HQ[Aib]EFVNYLLEGGPSSGAPPPS-NH2
SMILES: CC[C@H](C)[C@H](NC(=O)[C@H](CO)NC(=O)[C@H](Cc1ccc(O)cc1)NC(=O)[C@H](CC(=O)O)NC(=O)[C@H](CO)NC(=O)[C@@H](NC(=O)[C@](C)(Cc1ccccc1F)NC(=O)[C@@H](NC(=O)CNC(=O)[C@H](CCC(=O)O)NC(=O)[C@H](C)NC(=O)[C@@H](Cc1ccc(O)cc1)NC(C)=O)[C@@H](C)O)[C@@H](C)CC)C(=O)N[C@@H](C)C(=O)N[C@@H](CC(C)C)C(=O)N[C@@H](CC(=O)O)C(=O)N[C@@H](CCCCN)C(=O)N[C@@H](CCCCNC(=O)COCCOCCNC(=O)COCCOCCNC(=O)CC[C@H](NC(=O)CCCCCCCCCCCCCCCCCCC(=O)O)C(=O)O)C(=O)N[C@@H](Cc1c[nH]cn1)C(=O)N[C@@H](CCC(N)=O)C(=O)NC(C)(C)C(=O)N[C@@H](CCC(=O)O)C(=O)N[C@@H](Cc1ccccc1)C(=O)N[C@H](C(=O)N[C@@H](CC(N)=O)C(=O)N[C@@H](Cc1ccc(O)cc1)C(=O)N[C@@H](CC(C)C)C(=O)N[C@@H](CC(C)C)C(=O)N[C@@H](CCC(=O)O)C(=O)NCC(=O)NCC(=O)N1CCC[C@H]1C(=O)N[C@@H](CO)C(=O)N[C@@H](CO)C(=O)NCC(=O)N[C@@H](C)C(=O)N1CCC[C@H]1C(=O)N1CCC[C@H]1C(=O)N1CCC[C@H]1C(=O)N[C@@H](CO)C(N)=O)C(C)C
B4: Example 34 (peptide)
peptide: Y[Aib]EGT[αMePhe(2-F)]ISDYSIALDKK([AEEA-AEEA-γGlu-C20 diacid])HQ[Aib]EFVNYLLATGPSSGAPPPS-NH2
modifications: N-terminus assumed
SMILES: CC[C@H](C)[C@H](NC(=O)[C@H](CO)NC(=O)[C@H](Cc1ccc(O)cc1)NC(=O)[C@H](CC(=O)O)NC(=O)[C@H](CO)NC(=O)[C@@H](NC(=O)[C@](C)(Cc1ccccc1F)NC(=O)[C@@H](NC(=O)CNC(=O)[C@H](CCC(=O)O)NC(=O)C(C)(C)NC(=O)[C@@H](N)Cc1ccc(O)cc1)[C@@H](C)O)[C@@H](C)CC)C(=O)N[C@@H](C)C(=O)N[C@@H](CC(C)C)C(=O)N[C@@H](CC(=O)O)C(=O)N[C@@H](CCCCN)C(=O)N[C@@H](CCCCNC(=O)COCCOCCNC(=O)COCCOCCNC(=O)CC[C@H](NC(=O)CCCCCCCCCCCCCCCCCCC(=O)O)C(=O)O)C(=O)N[C@@H](Cc1c[nH]cn1)C(=O)N[C@@H](CCC(N)=O)C(=O)NC(C)(C)C(=O)N[C@@H](CCC(=O)O)C(=O)N[C@@H](Cc1ccccc1)C(=O)N[C@H](C(=O)N[C@@H](CC(N)=O)C(=O)N[C@@H](Cc1ccc(O)cc1)C(=O)N[C@@H](CC(C)C)C(=O)N[C@@H](CC(C)C)C(=O)N[C@@H](C)C(=O)N[C@H](C(=O)NCC(=O)N1CCC[C@H]1C(=O)N[C@@H](CO)C(=O)N[C@@H](CO)C(=O)NCC(=O)N[C@@H](C)C(=O)N1CCC[C@H]1C(=O)N1CCC[C@H]1C(=O)N1CCC[C@H]1C(=O)N[C@@H](CO)C(N)=O)[C@@H](C)O)C(C)C

The binders below were run against human GLP-1 receptor (human, UniProt P43220 24-463) (assay: cell-based or functional assay).
With B1 the “hGLP1R cAMP Rel EC50” value was greater than 5000 nM. B2 was tested, and the “hGLP1R cAMP Rel EC50” value was 1080 nM. In the case of B3, the “hGLP1R cAMP Rel EC50” value is reported as greater than 5000 nM. With B4 the “hGLP1R cAMP Rel EC50” value was 462 nM.

These binders were tested against human glucagon receptor (human, UniProt P47871 26-477) (assay: cell-based or functional assay).
Chain of human glucagon receptor (P47871 26-477): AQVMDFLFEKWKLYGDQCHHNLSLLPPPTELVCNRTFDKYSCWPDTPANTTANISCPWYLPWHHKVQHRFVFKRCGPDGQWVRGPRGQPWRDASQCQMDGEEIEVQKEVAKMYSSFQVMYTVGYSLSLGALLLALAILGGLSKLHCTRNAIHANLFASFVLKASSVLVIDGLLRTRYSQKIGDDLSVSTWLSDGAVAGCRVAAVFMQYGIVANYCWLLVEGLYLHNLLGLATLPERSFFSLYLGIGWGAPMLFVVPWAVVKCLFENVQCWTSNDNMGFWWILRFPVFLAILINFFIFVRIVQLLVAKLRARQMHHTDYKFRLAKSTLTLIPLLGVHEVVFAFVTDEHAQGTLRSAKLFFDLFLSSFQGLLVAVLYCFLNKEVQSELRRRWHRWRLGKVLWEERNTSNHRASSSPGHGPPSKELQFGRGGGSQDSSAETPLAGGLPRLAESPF
For B1, the “hGcgR cAMP Rel EC50” value was greater than 5000 nM. With B2 the “hGcgR cAMP Rel EC50” value was greater than 5000 nM. B3 was tested, and the “hGcgR cAMP Rel EC50” value was greater than 5000 nM. In the case of B4, the “hGcgR cAMP Rel EC50” value is reported as 913 nM.

What follows are binders tested against T1, human glucose-dependent insulinotropic peptide receptor (human, UniProt P48546 22-466) (assay: cell-based or functional assay).
T1 sequence (looked up): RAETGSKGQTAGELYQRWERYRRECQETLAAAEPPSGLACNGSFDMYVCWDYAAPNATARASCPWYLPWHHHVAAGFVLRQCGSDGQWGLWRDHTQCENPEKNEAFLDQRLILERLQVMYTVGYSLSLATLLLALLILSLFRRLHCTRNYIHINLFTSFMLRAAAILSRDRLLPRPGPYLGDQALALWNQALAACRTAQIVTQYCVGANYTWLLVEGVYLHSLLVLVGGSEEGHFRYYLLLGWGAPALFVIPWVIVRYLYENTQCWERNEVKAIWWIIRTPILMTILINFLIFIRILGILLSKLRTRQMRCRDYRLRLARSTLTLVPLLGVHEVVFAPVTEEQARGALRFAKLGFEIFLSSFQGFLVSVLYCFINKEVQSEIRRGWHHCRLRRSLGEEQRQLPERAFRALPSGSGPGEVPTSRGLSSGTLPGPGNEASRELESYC
In the case of B1, the “hGIPR cAMP Rel EC50” value is reported as 0.0125 nM. For B2, the “hGIPR cAMP Rel EC50” value was 0.0543 nM. For B3, the “hGIPR cAMP Rel EC50” value was 0.0551 nM. B4 was tested, and the “hGIPR cAMP Rel EC50” value was 0.0177 nM.
